Substitutions are numbered along the chain they refer to.
B1: 3-P17-A (antibody, V domains shown)
VH: QVQLKQSGPGLVQPSQSLSITCTVSGFSLTSYGVHWVRQSPGKGLEWLGVIWSGGITDYNAGFISRLSISKDNSKSQVFFTMNSLQADDTAIYYCARIITTVLDQFADWGQGTLVTVSA
VL: DIVLTQSPASLAVSLGQRATISCRASQSVSTSTYSYIHWYQQKPGQPPKLLIKYASNLESGVPARFSGSGSGTDFTLNIHPVEEEDTATYYCQHSWEIPPTFGAGTKLELK
B2: 9-M12-A (antibody, V domains shown)
VH: EVQLVESGGDLVKPGGSLKLSCTASGFTFSSYGMSWVRQTPDKRLEWVTTISSGGGYTYVPDSVKGRFTISRDNAKNTLYLHMSSLKSEDTAMYFCARPLIPTMVEAFDYWGQGTSLTVSS
VL: SIVMTQTPKFLPVSAGDRVTMTCKASQSVGNNVAWYQQKPGQSPKLLIYYASNRYTGVPDRFTGSGSGADFTFTISSVQVEDLAVYFCQQHYSSPFTFGTGTKLEIK
B3: 9-G24-A (antibody, V domains shown)
VH: QVQLQQSGAELVRPGASVKLSCKASGYTFTDYEMHWVKQTPVHGLEWIGVIDPETGDTAYNQKFKDKATLTADKSSSTAYMELRSLTSEDSAVYYCARRRDYGNPYWYFDVWGAGTAVTVSS
VL: EIVLTQSPALMAASPGEKVTITCSASSSISSSNLHWYQQKSGTSPKPWIYGTSNLASGVPVRFSGSGSGTSYSLTISSMEAEDAATYVCQQWSNYPYTFGSGTKLEIK
B4: 3-K11-A (antibody, V domains shown)
VH: EVQLQQSGPELVKPGASVKMSCKASGYTFTSYVMHWVKQKPGQGLEWIGYINPYNDGTEYNEKFKGKATLTSDKSSSTAYMELSSLTSEDSAVYHCAREAYRYFDVWGTGTTVTVSS
VL: DIQMTQSPASLSVSVGETVTITCRASENIYSNLAWYQQKQGKYPQLLVYGATNLADGVPSRFSGSGSGTQYFLKINSLQSEDFGSYYCQHFWGIPWTFGGGTKLEIK
B5: 4-O14-B (antibody, V domains shown)
VH: QVQLQQPGAELVKPGASVKLSCKASGYAFISHWMHWVRQRPGRGLEWIGRIDPNSSGSKDNEKFRSKATLTVDKPSSTAYMQLSSLTSEDSAVYYCARSPYYSNPYWYFDVWGAGTTVTVSS
VL: B3 VL with A25V, G42E, S77T, S78N, V88Y, N94S, Y97F

Each binder was assayed against T1, SARS-CoV-2 Beta (B.1.351) variant prefusion stabilized spike trimer protein (SARS-CoV-2 Beta (B.1.351), UniProt P0DTC2 14-1213) (assay: Table A (reprint): binding pattern against variant spike proteins).
T1 construct: also called SARS-CoV-2 B.1.351 spike protein; β spike

Q: Does B1 bind?
A: Result: binds

What follows are binders tested against T2, SARS-CoV-2 P.1 spike protein (SARS-CoV-2 P.1 (Gamma), UniProt P0DTC2 13-1213) (assay: Table A: binding pattern against variant spike proteins).
T2 construct: also called gamma; SARS-CoV-2 P.1 spike trimer variant

Q: Does B1 bind?
A: Result: no binding

Q: Does B2 bind?
A: Result: no binding

Q: Does B3 bind?
A: Result: no binding

Q: Does B4 bind?
A: Result: no binding

The binders below were run against T3, SARS-CoV-2 BA.2 spike trimer variant (SARS-CoV-2 Omicron BA.2, UniProt P0DTC2 16-1213) in the same assay as above.
T3 construct: also called Omicron BA.2

Q: Does B1 bind?
A: Result: no binding

Q: Does B2 bind?
A: Result: no binding

Q: Does B3 bind?
A: Result: no binding

Q: Does B4 bind?
A: Result: no binding

These binders were tested against T4, SARS-CoV-2 B.1.617.2 spike trimer variant (SARS-CoV-2 B.1.617.2 (Delta), UniProt P0DTC2 16-1213) in the same assay as above.
T4 construct: also called delta; SARS-CoV-2 Delta Spike

Q: Does B1 bind?
A: Result: no binding

Q: Does B2 bind?
A: Result: no binding

Q: Does B3 bind?
A: Result: no binding

Q: Does B4 bind?
A: Result: no binding

These binders were tested against T5, SARS-CoV-2 B.1.1.529 spike trimer variant (SARS-CoV-2 B.1.1.529 (Omicron), UniProt P0DTC2 16-1213) in the same assay as above.
T5 construct: also called omicron; Omicron B.1.1.529

Q: Does B1 bind?
A: Result: no binding

Q: Does B2 bind?
A: Result: no binding

Q: Does B3 bind?
A: Result: no binding

Each binder was assayed against T6, SARS-CoV-2 (WIV02 isolate) prefusion stabilized spike trimer protein (SARS-CoV-2 (WIV02 isolate), UniProt P0DTC2 14-1213) in the same assay as above.
T6 construct: also called WT; SARS-CoV-2 spike trimer

Q: Does B1 bind?
A: Result: no binding

Q: Does B2 bind?
A: Result: no binding

Q: Does B3 bind?
A: Result: no binding

Q: Does B4 bind?
A: Result: no binding

Each binder was assayed against T7, SARS-CoV-2 B.1.1.7 spike protein (SARS-CoV-2 B.1.1.7 (Alpha), UniProt P0DTC2 13-1213) in the same assay as above.
T7 construct: also called alpha; SARS-CoV-2 B.1.1.7 spike trimer variant

Q: Does B1 bind?
A: Result: no binding

Q: Does B2 bind?
A: Result: no binding

Q: Does B3 bind?
A: Result: no binding

Q: Does B4 bind?
A: Result: no binding

Each binder was assayed against T1, SARS-CoV-2 Beta (B.1.351) variant … (assay: ELISA screens of hybridomas on WT, Alpha, Beta and Gamma spike).

Q: Does B5 bind?
A: Result: binds
